Data on one protein can be found in paper doi:10.1101/2021.09.20.461017 (bioRxiv, 2021).

This data set concerns the molecule itself. The data set can be described thus: crystal structure.

B1: ClpP from Bacillus subtilis (BsClpP) (enzyme)
chain: not shown
With B1, the “stoichiometry N” value came out at 14.
